For this experiment, the target named is T1, soluble EPCR ECD (truncated after Ser210) (Homo sapiens, UniProt Q9UNN8).
T1 chain: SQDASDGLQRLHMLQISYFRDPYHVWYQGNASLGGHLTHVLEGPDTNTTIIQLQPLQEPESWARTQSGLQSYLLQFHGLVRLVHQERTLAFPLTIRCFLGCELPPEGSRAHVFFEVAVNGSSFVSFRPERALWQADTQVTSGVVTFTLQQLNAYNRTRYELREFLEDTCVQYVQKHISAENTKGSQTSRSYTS
The experiment in a line: solid-phase plate binding assay.

B1: activated protein C (protein)
chain 1: ANSFLEELRHSSLERECIEEICDFEEAKEIFQNVDDTLAFWSKHVDGDQCLVLPLEHPCASLCCGHGTCIDGIGSFSCDCRSGWEGRFCQREVSFLNCSLDNGGCTHYCLEEVGWRRCSCAPGYKLGDDLLQCHPAVKFPCGRPWKRMEKKRSHL
chain 2: LIDGKMTRRGDSPWQVVLLDSKKKLACGAVLIHPSWVLTAAHCMDESKKLLVRLGEYDLRRWEKWELDLDIKEVFVHPNYSKSTTDNDIALLHLAQPATLSQTIVPICLPDSGLAERELNQAGQETLVTGWGYHSSREKEAKRNRTFVLNFIKIPVVPHNECSEVMSNMVSENMLCAGILGDRQDACEGDSGGPMVASFHGTWFLVGLVSWGEGCGLLHNYGVYTKVSRYLDWIHGHIRDKEAPQKSWAP
modifications: APC biotinylated with biotin-FPR-chloromethylketone, Ca2+ and Mg2+
As usually defined, the Kd is the equilibrium constant for the complex coming apart. On to B1, for which binding was characterised by a dissociation constant (Kd) of 24 nM. In other words, the double-digit nanomolar range.

The record behind these values is publication PMC5053618 (2016).
